Test results reported in patent US10829756B2, “Discovery of enzymes from the alpha-keto acid decarboxylase family” (Regents of the University of California, priority 2015, dated 2020).
Where “and” joins values, the source holds several entries; their conditions need not be identical. Identical values can stand only once.

B1: GEO175 L376T_T240S: engineered mutant of GEO 175 containing two amino acid changes (L376T, T240S), SEQ ID NO:19 (protein)
chain: MRTVRESALDVLRARGMTTVFGNPGSTELPMLKQFPDDFRYVLGLQEAVVVGMADGFALASGTTGLVNLHTGPGTGNAMGAILNARANRTPMVVTAGQQVRAMLTMEALLTNPQSTLLPQPAVKWAYEPPRAADVAPALARAVQVAETPPQGPVFVSLPMDDFDVVLGEDEDRAAQRAAARTVTHAAAPSAEVVRRLAARLSGARSAVLVAGNDVDASGAWDAVVELAERTGLPVWSAPSEGRVAFPKSHPQYRGMLPPAIAPLSRCLEGHDLVLVIGAPVFCYYPYVPGAHLPENTELVHLTRDADEAARAPVGDAVVADLALTVRALLAELPAREAAAPAARTARAESTAEVDGVLTPLAAMTAIAQGAPANTTWVNESPSNLGQFHDATRIDTPGSFLFTAGGGLGFGLAAAVGAQLGAPDRPVVCVIGDGSTHYAVQALWTAAAYKVPVTFVVLSNQRYAILQWFAQVEGAQGAPGLDIPGLDIAAVATGYGVRAHRATGFGELSKLVRESALQQDGPVLIDVPVTTELPTL
modifications: Synthetic mutant of GEO175
B2: KIVD_VLV: KIVD triple mutant G402V/M538L/F542V, SEQ ID NO:3 (protein)
chain: MYTVGDYLLDRLHELGIEEIFGVPGDYNLQFLDQIISRKDMKWVGNANELNASYMADGYARTKKAAAFLTTFGVGELSAVNGLAGSYAENLPVVEIVGSPTSKVQNEGKFVHHTLADGDFKHFMKMHEPVTAARTLLTAENATVEIDRVLSALLKERKPVYINLPVDVAAAKAEKPSLPLKKENSTSNTSDQEILNKIQESLKNAKKPIVITGHEIISFGLEKTVSQFISKTKLPITTLNFGKSSVDEALPSFLGIYNGKLSEPNLKEFVESADFILMLGVKLTDSSTGAFTHHLNENKMISLNIDEGKIFNESIQNFDFESLISSLLDLSEIEYKGKYIDKKQEDFVPSNALLSQDRLWQAVENLTQSNETIVAEQGTSFFGASSIFLKPKSHFIGQPLWVSIGYTFPAALGSQIADKESRHLLFIGDGSLQLTVQELGLAIREKINPICFIINNDGYTVEREIHGPNQSYNDIPMWNYSKLPESFGATEERVVSKIVRTENEFVSVMKEAQADPNRMYWIELILAKEDAPKVLKKLGKLVAEQNKS
modifications: Synthetic protein KIVD_VLV

Experiments:
[1] = In vitro steady-state kinetics of purified 2-ketoacid decarboxylases (ADH/NADH-coupled), C5 substrate; format: biochemical; conditions: relative to GEO 175
Method: (§1) For the native KIVD and KIVD_VLV mutant, 2 ml overnight cultures of XL1B cells were transformed with pQE9 containing N-terminal his-tagged KIVD enzymes and grown in Terrific Broth (BP biomedical, Cat#3046-042) with 50 μg/mL of carbenicillin. (Fisher scientific, Cat# BP2648-5) For the GEOs, 2 ml overnight cultures of BLR cells were transformed with pet29b+ plasmid containing N-terminal his-tagged GEOs, and grown in Terrific Broth with 50 μg/mL of kanamycin. (Fisher scientific, Cat# BP906-5) These cultures were diluted 1:1000 in 500 mL of Terrific Broth with 1 mM MgSO4, 1% glucose, and 50ug/mL of corresponding antibiotics, then grown at 37° C. for 24 hours. […] Protein concentrations were determined using a Synergy H1 spectrophotometer (Biotek) by measuring absorbance at 280 nm using their calculated extinction coefficients with ExPASy ProtParam Tool.^33 All other buffers and salts were purchased from Fisher Scientific unless otherwise specified.
(§2) The kcat and KM values of selective KIVD mutants were measured for the substrates: C3, C5, isoC5, and C8. […] Activity was measured at 0.005 mM to 10 mM substrates. […] Absorbance readings were taken every 1-minute at OD340 at 21° C. for 60 minutes using the Synergy H1. Kinetic parameters (kcat and KM) were determined by fitting initial velocity versus substrate concentration data to the Michaelis-Menten equation.

[2] = In vitro steady-state kinetics of purified 2-ketoacid decarboxylases (ADH/NADH-coupled), C8 substrate; format: biochemical; conditions: relative to GEO 175
Method: as §1, §2

[3] = system: synthetic recursive+1 pathway; experiment: In vivo alcohol production of the synthetic recursive+1 pathway (fermentation, GC-FID); format: cell-based, E. coli
Method: The measured specificity and activity for each enzyme was used to select two candidates for further characterization of their ability to modulate alcohol production in vivo. The two enzymes with the highest activity and specificity (FIG. 4), KIVD_VLV and GEO 175, were tested for their ability to reprogram the synthetic recursive+1 pathway to produce long-chain alcohol products in vivo. The alcohol-producing biochemical pathway was adapted from a previous study used to synthesize alcohols of various lengths.^3,4 Starting from glucose, the aforementioned+1 pathway, involving LeuABCD, recursively elongates 2-ketoacids, starting with 2-ketobutyrate, into longer chained 2-ketoacids. These 2-ketoacids are then converted to aldehydes by ketoacid decarboxylases (native KIVD, KIVD_VLV, and GEO 175) and subsequently to alcohols by an alcohol dehydrogenase. Carbon flux through this alcohol synthesizing biochemical pathway is enhanced by overexpressing thrABC, ilvA, LeuABCD, and ADH6 on inducible plasmids transformed into E. coli.^3 The effects of overexpression were furthermore supported and maintained by knocking out the threonine exporter enzyme RhtA and the primary DNA recombination degradation enzyme RecA. The enzyme AdhE was also knocked out, which helps raise long chain alcohol production by eliminating a competing pathway where acetyl-CoA is directly converted to ethanol.^19
Genes were removed from the ATCC 98082 ΔrhtA strain genome using P1 transduction from the Keio collection as previously.^32 The aldehyde-alcohol dehydrogenase gene (adhE) was knocked out to eliminate ethanol production from acetyl-coA. In all strains, recA was knocked out to prevent recombination between the genome and plasmids, thereby stabilizing the transformants. Primers used to target recA for knockout were designed based on the Keio collection (Genobase, ecoli.aist-nara.ac.jp) and ordered from Integrated DNA Technologies.
For n-alcohol production, strains of ST128 were transformed with pZS_thrO, pZAlac_ilvABSleuA, and pZE_LeuA*BCDK*A6 containing various kivd mutations. Fermentation conditions were adapted from those in previous works,^3,4 with the following changes: 20 mL of medium was used, with 100 μg/mL ampicillin, […] kanamycin, and 100 μg/mL spectinomycin added. Cells were grown to an optical density at 600 nm of ˜0.6, followed by induction with 0.1 mM isopropyl-b-D-thiogalactoside (IPTG). After fermentation, cells were centrifuged for 15 minutes at 4000×g and 4° C. The supernatant was split into two fractions for analysis, 5 mL for short chain alcohols (ethanol, 1-propanol, and 1-butanol), and 15 mL for long chain alcohols (1-pentanol, 1-hexanol, 1-heptanol, and 1-octanol). Long chain alcohols were extracted from the 15 mL fraction by 3 mL n-hexane prior to analysis. GC-FID analysis was performed as previously described.^4

[4] = High-throughput pH-dependent colorimetric assay of KIVD mutant libraries in crude cell extracts; format: biochemical; conditions: combinatorial KIVD mutants
Method: Partially degenerate oligonucleotides were ordered from Integrated DNA Technologies (San Diego, Calif.) and were used to generate libraries of kivd mutants (with N-terminal his tags) by PCR. Library DNA was purified, inserted into the PCR-amplified pQE9 vector by isothermal Gibson assembly,^31 and transformed into XL1-Blue cells. Individual ampicillin-resistant colonies were picked and grown in 96-well blocks at 37° C. overnight. The number of colonies picked was three times the theoretical library size to ensure approximately 95% probability of all possible mutation combinations occurring. Glycerol was added to 25% (w/v) and libraries were stored at −80° C. until enzyme activity and specificity were assayed. KIVD mutant libraries were screened using a pH-monitored enzyme assay (method explained below) to measure the rate of H^+ consumption resulting from the decarboxylation of 2-ketoacids.
KIVD mutant libraries were grown overnight in culture blocks, diluted 1:100 into fresh media (Luria Broth), grown at 37° C. for 3 hours to OD600 ˜0.6, induced with 0.1 mM IPTG (GoldBio, Saint Louis, Mo.), and grown for 2 additional hours at 37° C. Cells from the well blocks were transferred to 96-well assay plates (Costar, Corning, N.Y.) and cell density was measured at 600 nm. […] Absorbance was measured at 615 nm in a spectrophotometer (TEK Powerwave XS, BioTek, Winooski, Vt.). […]

[5] = forty hours, microaerobic, defined media

Molecule | effect on shorter chain substrates [1] | effect on catalytic efficiency on C8 [2] | drop of overall alcohol production from that obtained with KIVD [3] | heptanol share of alcohol production [3] | hexanol share of alcohol production [3] | major alcohol product [3] | pentanol share of alcohol production [3] | 1-Ethanol production [3, 5] | 1-Heptanol production [3, 5] | 1-Hexanol production [3, 5] | 1-Octanol production [3, 5] | 1-Pentanol production [3, 5] | 1-Propanol production [3, 5] | long chain (≥C5) alcohols produced ([3]; sum of long chain alcohols) | specificity for C8 and activity in colorimetric screening [4]
B1 | negligible effect | decrease catalytic efficiency on C8 | – | – | – | – | – | – | – | – | – | – | – | – | –
B2 | – | – | ~10 fold | 37% | 47% | Hexanol (C6) | 16% | no ethanol or propanol production is observed | 269 mg/L and 269 ± 23 mg/L | 341 mg/L and 341 ± 63 mg/L | not observed | 118 mg/L and 118 ± 29 mg/L | no ethanol or propanol production is observed | 728 mg/L | highest specificity and activity
